Residue numbers refer to the chain shown, from its start. One block for each binder: values may come before it.
Key:
Recombinant Human IL-13 [1] = biological target: Recombinant Human IL-13 (human, UniProt P35225 35-146, limits assumed); experiment: cell-based or functional assay
Target sequence in this assay (P35225 35-146 limits assumed): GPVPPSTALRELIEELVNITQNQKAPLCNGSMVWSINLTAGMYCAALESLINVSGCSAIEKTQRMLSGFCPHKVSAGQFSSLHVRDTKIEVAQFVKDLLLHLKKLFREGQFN

Recombinant Human IL-13 [2] = biological target: Recombinant Human IL-13 (human, UniProt P35225 35-146, limits assumed); experiment: Biacore SPR
Summary of the method: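 Antibodies or DVD-Ig captured on anti-mouse IgG (Fcγ) CM5 surface, SPR at 25 °C in HBS-EP+. Antigen at 0.8–100 nM, 50 μl/min; association 5 min, dissociation 10 min. kon and koff came from a global 1:1 fit with local Rmax.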
Target sequence in this assay (P35225 35-146 limits assumed): as above

B1: DVD2738 (bispecific antibody, human IgG1, kappa)
heavy: not shown
light: DIQMTQSPSSLSASVGDRVTISCRASQDIRNYLNWYQQKPGKAPKLLIFYTSKLHSGVPSRFSGSGSGTDYTLTISSLQPEDIATYYCQQGLTPPLTFGGGTKVEIKRGGSGGGGSGDIQMTQSPSSLSASVGDRVTITCKASQLVSSAVAWYQQKPGKAPKLLIYWASTLHTGVPSRFSGSGSGTDFTLTISSLQPEDFATYYCQQHYRTPFTFGQGTKLEIKRTVAAPSVFIFPPSDEQLKSGTASVVCLLNNFYPREAKVQWKVDNALQSGNSQESVTEQDSKDSTYSLSSTLTLSKADYEKHKVYACEVTHQGLSSPVTKSFNRGEC
IL-13 Neutralization Assay IC50 (Recombinant Human IL-13 [1]): 0.149 nM

B3: DVD2789 (bispecific antibody, human IgG1, kappa)
heavy: not shown
light: DIQMTQSPSSLSASVGDRVTISCRASQDIRNYLNWYQQKPGKAPKLLIFYTSKLHSGVPSRFSGSGSGTDYTLTISSLQPEDIATYYCQQGLTPPLTFGGGTKVEIKRTVAAPDIQMTQSPSSLSASVGDRVTITCRASQDISQYLNWYQQKPGKAPKLLIYYTSRLQSGVPSRFSGSGSGTDFTLTISSLQPEDFATYFCQQGNTWPPTFGQGTKLEIKRTVAAPSVFIFPPSDEQLKSGTASVVCLLNNFYPREAKVQWKVDNALQSGNSQESVTEQDSKDSTYSLSSTLTLSKADYEKHKVYACEVTHQGLSSPVTKSFNRGEC
IL-13 Neutralization Assay IC50 (Recombinant Human IL-13 [1]): 0.078 nM

B5: DVD3147 (bispecific antibody, IgG1)
VH: EVQLVESGGGLVQPGGSLRLSCAASGFTFSNYGVTWVRQAPGKGLEWVSMIWADGSTHYASSVKGRFTISRDNSKNTLYLQMNSLRAEDTAVYYCAREWQHGPVAYWGQGTLVTVSSASTKGPSVFPLAPEVQLVQSGAEVKKPGASVKVSCKASGYTFTSYWMHWVRQAPGQGLEWIGNINPKGGSNIYNEKFQGRVTMTRDTSISTAYMELSRLRSDDTAVYYCARLDYFGDSFDLWGQGTTVTVSS
VL: DIQMTQSPSSLSASVGDRVTITCRASQLVSSAVAWYQQKPGKAPKLLIYWASARHTGVPSRFSGSGSGTDFTLTISSLQPEDFATYYCQQHYKTPFTFGQGTKLEIKRTVAAPDIQMTQSPSSLSASVGDRVTITCRASQGIRNYLNWYQQKPGKAPKLLIYYASNLEVGVPSRFSGSGSGTDYTLTISSLQPEDFATYYCQQDNRFPYTFGGGTKVEIKR
notes: DVD-Ig; wt hIgG1 + kappa constants
Kd (Recombinant Human IL-13 [2]): < 0.0077 nM
koff (Recombinant Human IL-13 [2]): < 1e-06 s⁻¹
kon (Recombinant Human IL-13 [2]): 130000 M⁻¹ s⁻¹

B6: DVD3157 (bispecific antibody, IgG1)
VH: B5 VH with T35E, M50G, S61D, S62T, G65S
VL: B5 VL with R24K, A53T, R54L, K93R
notes: as for B5
Kd (Recombinant Human IL-13 [2]): 0.0095 nM
koff (Recombinant Human IL-13 [2]): 1.1e-06 s⁻¹
kon (Recombinant Human IL-13 [2]): 110000 M⁻¹ s⁻¹

B7: DVD3158 (bispecific antibody, IgG1)
VH: EVQLVQSGAEVKKPGASVKVSCKASGYTFTSYWMHWVRQAPGQGLEWIGNINPKGGSNIYNEKFQGRVTMTRDTSISTAYMELSRLRSDDTAVYYCARLDYFGDSFDLWGQGTTVTVSSGGGGSGGGGSEVQLVESGGGLVQPGGSLRLSCAASGFTFSNYGVEWVRQAPGKGLEWVSGIWADGSTHYADTVKSRFTISRDNSKNTLYLQMNSLRAEDTAVYYCAREWQHGPVAYWGQGTLVTVSS
VL: DIQMTQSPSSLSASVGDRVTITCRASQGIRNYLNWYQQKPGKAPKLLIYYASNLEVGVPSRFSGSGSGTDYTLTISSLQPEDFATYYCQQDNRFPYTFGGGTKVEIKRGGSGGGGSGDIQMTQSPSSLSASVGDRVTITCKASQLVSSAVAWYQQKPGKAPKLLIYWASTLHTGVPSRFSGSGSGTDFTLTISSLQPEDFATYYCQQHYRTPFTFGQGTKLEIKR
notes: as for B5
Kd (Recombinant Human IL-13 [2]): 0.057 nM
koff (Recombinant Human IL-13 [2]): 6.7e-05 s⁻¹
kon (Recombinant Human IL-13 [2]): 1.2e+06 M⁻¹ s⁻¹

B11: DVD2788 (bispecific antibody, human IgG1, kappa)
heavy: not shown
light: DIQMTQSPSSLSASVGDRVTISCRASQDIRNYLNWYQQKPGKAPKLLIFYTSKLHSGVPSRFSGSGSGTDYTLTISSLQPEDIATYYCQQGLTPPLTFGGGTKVEIKRGGSGGGGSGDIQMTQSPSSLSASVGDRVTITCRASQDISQYLNWYQQKPGKAPKLLIYYTSRLQSGVPSRFSGSGSGTDFTLTISSLQPEDFATYFCQQGNTWPPTFGQGTKLEIKRTVAAPSVFIFPPSDEQLKSGTASVVCLLNNFYPREAKVQWKVDNALQSGNSQESVTEQDSKDSTYSLSSTLTLSKADYEKHKVYACEVTHQGLSSPVTKSFNRGEC
IL-13 Neutralization Assay IC50 (Recombinant Human IL-13 [1]): 0.072 nM

B12: DVD2692 (bispecific antibody, human IgG1, kappa)
heavy: not shown
light: DIQMTQSPSSLSASVGDRVTISCRASQDIRNYLNWYQQKPGKAPKLLIFYTSKLHSGVPSRFSGSGSGTDYTLTISSLQPEDIATYYCQQGLTPPLTFGGGTKVEIKRTVAAPDIQMTQSPSSLSASVGDRVTITCRASQLVSSAVAWYQQKPGKAPKLLIYWASARHTGVPSRFSGSGSGTDFTLTISSLQPEDFATYYCQQHYKTPFTFGQGTKLEIKRTVAAPSVFIFPPSDEQLKSGTASVVCLLNNFYPREAKVQWKVDNALQSGNSQESVTEQDSKDSTYSLSSTLTLSKADYEKHKVYACEVTHQGLSSPVTKSFNRGEC
IL-13 Neutralization Assay IC50 (Recombinant Human IL-13 [1]): 0.131 nM

B13: DVD2739 (bispecific antibody, human IgG1, kappa)
heavy: not shown
light: B12 light with R137K, A166T, R167L, K206R
IL-13 Neutralization Assay IC50 (Recombinant Human IL-13 [1]): 0.132 nM

B14: DVD2742 (bispecific antibody, human IgG1, kappa)
heavy: not shown
light: B12 light with R137K, A166T, R167L, K206R
IL-13 Neutralization Assay IC50 (Recombinant Human IL-13 [1]): 0.064 nM

Further lines, results first:

Kd (Recombinant Human IL-13 [2]): 0.039 nM
koff (Recombinant Human IL-13 [2]): 5.4e-05 s⁻¹
kon (Recombinant Human IL-13 [2]): 1.4e+06 M⁻¹ s⁻¹
B2: DVD3159 (bispecific antibody, IgG1)
VH: EVQLVQSGAEVKKPGASVKVSCKASGYTFTSYWMHWVRQAPGQGLEWIGNINPKGGSNIYNEKFQGRVTMTRDTSISTAYMELSRLRSDDTAVYYCARLDYFGDSFDLWGQGTTVTVSSASTKGPEVQLVESGGGLVQPGGSLRLSCAASGFTFSNYGVEWVRQAPGKGLEWVSGIWADGSTHYADTVKSRFTISRDNSKNTLYLQMNSLRAEDTAVYYCAREWQHGPVAYWGQGTLVTVSS
VL: DIQMTQSPSSLSASVGDRVTITCRASQGIRNYLNWYQQKPGKAPKLLIYYASNLEVGVPSRFSGSGSGTDYTLTISSLQPEDFATYYCQQDNRFPYTFGGGTKVEIKRTVAAPDIQMTQSPSSLSASVGDRVTITCKASQLVSSAVAWYQQKPGKAPKLLIYWASTLHTGVPSRFSGSGSGTDFTLTISSLQPEDFATYYCQQHYRTPFTFGQGTKLEIKR
notes: as for B5

IL-13 Neutralization Assay IC50 (Recombinant Human IL-13 [1]): 0.066 nM
B4: AB397 (antibody, V domains shown)
VH: EVTLRESGPGLVKPTQTLTLTCTLYGFSLSTSDMGVDWIRQPPGKGLEWLAHIWWDDVKRYNPALKSRLTISKDTSKNQVVLKLTSVDPVDTATYYCARTVSSGYIYYAMDYWGQGTLVTVSS
VL: DIQMTQSPSSLSASVGDRVTISCRASQDIRNYLNWYQQKPGKAPKLLIFYTSKLHSGVPSRFSGSGSGTDYTLTISSLQPEDIATYYCQQGLTPPLTFGGGTKVEIKR

IL-13 Neutralization Assay IC50 (Recombinant Human IL-13 [1]): 0.105 nM
B8: DVD2691 (bispecific antibody, human IgG1, kappa)
heavy: not shown
light: DIQMTQSPSSLSASVGDRVTISCRASQDIRNYLNWYQQKPGKAPKLLIFYTSKLHSGVPSRFSGSGSGTDYTLTISSLQPEDIATYYCQQGLTPPLTFGGGTKVEIKRTVAAPSVFIFPPDIQMTQSPSSLSASVGDRVTITCRASQLVSSAVAWYQQKPGKAPKLLIYWASARHTGVPSRFSGSGSGTDFTLTISSLQPEDFATYYCQQHYKTPFTFGQGTKLEIKRTVAAPSVFIFPPSDEQLKSGTASVVCLLNNFYPREAKVQWKVDNALQSGNSQESVTEQDSKDSTYSLSSTLTLSKADYEKHKVYACEVTHQGLSSPVTKSFNRGEC

IL-13 Neutralization Assay IC50 (Recombinant Human IL-13 [1]): 0.118 nM
B9: DVD2741 (bispecific antibody, human IgG1, kappa)
heavy: not shown
light: B8 light with R144K, A173T, R174L, K213R

IL-13 Neutralization Assay IC50 (Recombinant Human IL-13 [1]): 0.068 nM
B10: AB398 (antibody, V domains shown)
VH: EVQLVQSGAEVKKPGASVKVSCKASGYTFTTYGVSWVRQAPGQGLEWMGEIYPGNYNTYYNEKFRGRVTMTTDTSTSTAYMELRSLRSDDTAVYYCARWRTSYFSDYGYFDYWGQGTTVTVSS
VL: DVVMTQSPLSLPVTLGQPASISCRSSQSLVHSHGNTYLHWYQQRPGQSPRLLIYTVSNRFSGVPDRFSGSGSGTDFTLKISRVEAEDVGVYYCSQSTHVPYTFGGGTKVEIKR

IL-13 Neutralization Assay IC50 (Recombinant Human IL-13 [1]): 0.245 nM
B15: DVD2791 (bispecific antibody, human IgG1, kappa)
heavy: not shown
light: DIQMTQSPSSLSASVGDRVTISCRASQDIRNYLNWYQQKPGKAPKLLIFYTSKLHSGVPSRFSGSGSGTDYTLTISSLQPEDIATYYCQQGLTPPLTFGGGTKVEIKRTVAAPSVFIFPPDIQMTQSPSSLSASVGDRVTITCRASQDISQYLNWYQQKPGKAPKLLIYYTSRLQSGVPSRFSGSGSGTDFTLTISSLQPEDFATYFCQQGNTWPPTFGQGTKLEIKRTVAAPSVFIFPPSDEQLKSGTASVVCLLNNFYPREAKVQWKVDNALQSGNSQESVTEQDSKDSTYSLSSTLTLSKADYEKHKVYACEVTHQGLSSPVTKSFNRGEC

— patent US20140271457A1 (AbbVie / Abbott, published 2014)
